Assay [1] has as its target MADD (DENN/MADD, RAB3-GEP) (UniProt Q8WXG6). The experiment in a line: GFP-Trap co-IP, HA immunoblot. The settings on record: reference: wild type; sites T86. On the technique in general: A western blot detects proteins with antibodies after separation by electrophoresis.
Another assay addresses RAB-GDI1 (UniProt P31150). The assay can be described thus: GFP-Trap co-IP, immunoblot. The settings on record: reference: wild type; sites T86.

As for RAB3A (from UniProt P20336) T86A, the “binding against the reference” value (in assay [1]; in the assay with RAB-GDI1) was “stronger” throughout.

(Values after article PMC10959120.)
